Experimental findings from US20230151068A1 are described below.

This experiment addresses biotinylated His-Avi-TEAD (194-411) (UniProt P28347). Kind of experiment: SSM screen, enrichment after two rounds of sorting.
In the case of GSPDEYIERAKECCKKGDWQCCLRYFEESGDPNVMLICLFCP (designed binder) [I17W variant of SEQ ID NO: 1], the enrichment score was -10.4.

As to GSPDEYIERAKECCKKGYIQCCLRYFEESGDPNVMLICLFCP (designed binder) [D16Y variant of SEQ ID NO: 1], the enrichment score is -3.84.

For GSPDEYIERAKECCKKGDIYCCLRYFEESGDPNVMLICLFCP (designed binder) [Q18Y variant of SEQ ID NO: 1], the enrichment score is -8.35.

GSPDEGIERAKECCKKGDIQCCLRYFEESGDPNVMLICLFCP (designed binder) [Y04G variant of SEQ ID NO: 1] registered an enrichment score of -2.21.

Consider GSEDEYIERAKECCKKGDIQCCLRYFEESGDPNVMLICLFCP (designed binder) [P01E variant of SEQ ID NO: 1], for which the enrichment score turned out to be 1.12.

GSPDEYGERAKECCKKGDIQCCLRYFEESGDPNVMLICLFCP (designed binder) [I05G variant of SEQ ID NO: 1] came in with an enrichment score of -3.97.

GSPDEYIERAKECCKKGDIWCCLRYFEESGDPNVMLICLFCP (designed binder) [Q18W variant of SEQ ID NO: 1] gave an enrichment score of -11.1.

For the molecule GSPDEYIERAKECCKKPDIQCCLRYFEESGDPNVMLICLFCP (designed binder) [G15P variant of SEQ ID NO: 1], the enrichment score is -1.25.

Consider GSPDDYIERAKECCKKGDIQCCLRYFEESGDPNVMLICLFCP (designed binder) [E03D variant of SEQ ID NO: 1], for which the enrichment score is 0.8.

Molecule GSPDEYIERAKECCKYGDIQCCLRYFEESGDPNVMLICLFCP (designed binder) [K14Y variant of SEQ ID NO: 1] returned an enrichment score of -0.68.

Take GSPDEYIERDKECCKKGDIQCCLRYFEESGDPNVMLICLFCP (designed binder) [A08D variant of SEQ ID NO: 1]: the enrichment score was -4.17.

GSHDEYIERAKECCKKGDIQCCLRYFEESGDPNVMLICLFCP (designed binder) [P01H variant of SEQ ID NO: 1] gave an enrichment score of -0.88.

GSPDEYIERAKECCKKGPIQCCLRYFEESGDPNVMLICLFCP (designed binder) [D16P variant of SEQ ID NO: 1] had an enrichment score of -4.62.

Turning to GSPDEYIGRAKECCKKGDIQCCLRYFEESGDPNVMLICLFCP (designed binder) [E06G variant of SEQ ID NO: 1], the enrichment score was -1.15.

Molecule GSPDEYIERADECCKKGDIQCCLRYFEESGDPNVMLICLFCP (designed binder) [K09D variant of SEQ ID NO: 1] came in with an enrichment score of -0.58.

As for GSPDEYIERAKECCKKYDIQCCLRYFEESGDPNVMLICLFCP (designed binder) [G15Y variant of SEQ ID NO: 1], the enrichment score was -1.14.

On to GSPDEYIERAEECCKKGDIQCCLRYFEESGDPNVMLICLFCP (designed binder) [K09E variant of SEQ ID NO: 1], for which the enrichment score worked out at 3.95.

Take GSPDEYEERAKECCKKGDIQCCLRYFEESGDPNVMLICLFCP (designed binder) [I05E variant of SEQ ID NO: 1]: the enrichment score is -1.23.

In turn, GSPDEDIERAKECCKKGDIQCCLRYFEESGDPNVMLICLFCP (designed binder) [Y04D variant of SEQ ID NO: 1] gave an enrichment score of -1.79.

Turning to GSPDEYIERGKECCKKGDIQCCLRYFEESGDPNVMLICLFCP (designed binder) [A08G variant of SEQ ID NO: 1], the enrichment score is -4.11.

For the molecule GSPDEYIERAKGCCKKGDIQCCLRYFEESGDPNVMLICLFCP (designed binder) [E10G variant of SEQ ID NO: 1], the enrichment score was -0.44.

GSPDEYIDRAKECCKKGDIQCCLRYFEESGDPNVMLICLFCP (designed binder) [E06D variant of SEQ ID NO: 1] came in with an enrichment score of -0.6.

Molecule GSPDEYIEREKECCKKGDIQCCLRYFEESGDPNVMLICLFCP (designed binder) [A08E variant of SEQ ID NO: 1] gave an enrichment score of -2.66.

For GSPDEYIERAKECCKKGDIPCCLRYFEESGDPNVMLICLFCP (designed binder) [Q18P variant of SEQ ID NO: 1], the enrichment score is 0.69.

In turn, GSPEEYIERAKECCKKGDIQCCLRYFEESGDPNVMLICLFCP (designed binder) [D02E variant of SEQ ID NO: 1] registered an enrichment score of 1.16.

For GSPDEYIERAKECCPKGDIQCCLRYFEESGDPNVMLICLFCP (designed binder) [K13P variant of SEQ ID NO: 1], the enrichment score is -10.4.

GSPDEYIERAKECCKKGDPQCCLRYFEESGDPNVMLICLFCP (designed binder) [I17P variant of SEQ ID NO: 1] displayed an enrichment score of -2.41.

Consider GSPDEYIERAKECCYKGDIQCCLRYFEESGDPNVMLICLFCP (designed binder) [K13Y variant of SEQ ID NO: 1], for which the enrichment score was -1.29.

Take GSPDEYIERAKECCKPGDIQCCLRYFEESGDPNVMLICLFCP (designed binder) [K14P variant of SEQ ID NO: 1]: the enrichment score was -10.6.

On to GSPDEYIERAGECCKKGDIQCCLRYFEESGDPNVMLICLFCP (designed binder) [K09G variant of SEQ ID NO: 1], for which the enrichment score is -0.48.

In turn, GSPDGYIERAKECCKKGDIQCCLRYFEESGDPNVMLICLFCP (designed binder) [E03G variant of SEQ ID NO: 1] returned an enrichment score of -0.62.

In turn, GSPDEYIERAKECCKKGDYQCCLRYFEESGDPNVMLICLFCP (designed binder) [I17Y variant of SEQ ID NO: 1] registered an enrichment score of -9.48.

As to GSGDEYIERAKECCKKGDIQCCLRYFEESGDPNVMLICLFCP (designed binder) [P01G variant of SEQ ID NO: 1], the enrichment score came to 1.7.

With GSPDEYIEEAKECCKKGDIQCCLRYFEESGDPNVMLICLFCP (designed binder) [R07E variant of SEQ ID NO: 1], the enrichment score was -0.16.

Molecule GSPDEYIEDAKECCKKGDIQCCLRYFEESGDPNVMLICLFCP (designed binder) [R07D variant of SEQ ID NO: 1] had an enrichment score of -2.25.

On to GSPDEEIERAKECCKKGDIQCCLRYFEESGDPNVMLICLFCP (designed binder) [Y04E variant of SEQ ID NO: 1], for which the enrichment score is -6.52.

As for GSPDEYIERAKDCCKKGDIQCCLRYFEESGDPNVMLICLFCP (designed binder) [E10D variant of SEQ ID NO: 1], the enrichment score was -0.89.

On to GSDDEYIERAKECCKKGDIQCCLRYFEESGDPNVMLICLFCP (designed binder) [P01D variant of SEQ ID NO: 1], for which the enrichment score was -0.65.

For the molecule GSPDEYDERAKECCKKGDIQCCLRYFEESGDPNVMLICLFCP (designed binder) [I05D variant of SEQ ID NO: 1], the enrichment score was -3.47.

Turning to GSPDEYIEGAKECCKKGDIQCCLRYFEESGDPNVMLICLFCP (designed binder) [R07G variant of SEQ ID NO: 1], the enrichment score came to 1.31.

The molecule GSPGEYIERAKECCKKGDIQCCLRYFEESGDPNVMLICLFCP (designed binder) [D02G variant of SEQ ID NO: 1] gave an enrichment score of -0.32.
